Experiment [1] addresses human CD19, full length, on cells (human) (UniProt P15391). Nature of the experiment: FACS on CHO-K1-human CD19-1C4 cells.
Experiment [2] shares this target. Nature of the experiment: FACS on CHO-K1-human CD19-2G4 cells.
Experiment [3] deals with monkey CD19, full length, on HEK293T cells (monkey). As to the kind of experiment: FACS on HEK293T-monkey CD19 cells.
The target of experiment [4] is human CD19, full length, on cells (human) (UniProt P15391). Nature of the experiment: FACS on CHO-K1-human CD19-1C9 cells.
Experiment [5] has the same target. As to the kind of experiment: FACS on Raji cells (endogenous CD19).
Experiment [6] has the same target. As to the kind of experiment: FACS on CHO-K1-human CD19-2C8 cells.
Experiment [7] has the same target. As to the kind of experiment: FACS on Raji cells.
For experiment [8] the target is unchanged. Nature of the experiment: FACS on CHO-K1-human CD19 cells.
Experiment [9] addresses cynomolgus monkey CD19 on peripheral blood B cells (cynomolgus monkey (Macaca fascicularis)). Nature of the experiment: FACS on cynomolgus monkey PBMC, gated on CD20-positive B cells.
Experiment [10] has as its target murine CD19 protein (murine) (UniProt P25918). As to the kind of experiment: ELISA, murine CD19 coated.
In experiment [11] the target is human CD19-his protein (human) (UniProt P15391). As to the kind of experiment: ELISA, human CD19-his coated at 4 ug/mL. A general note: In an ELISA, binding on a coated surface is turned into a signal by an enzyme label.

murine CD19 protein (murine), sequence (P25918 19-287 limits assumed): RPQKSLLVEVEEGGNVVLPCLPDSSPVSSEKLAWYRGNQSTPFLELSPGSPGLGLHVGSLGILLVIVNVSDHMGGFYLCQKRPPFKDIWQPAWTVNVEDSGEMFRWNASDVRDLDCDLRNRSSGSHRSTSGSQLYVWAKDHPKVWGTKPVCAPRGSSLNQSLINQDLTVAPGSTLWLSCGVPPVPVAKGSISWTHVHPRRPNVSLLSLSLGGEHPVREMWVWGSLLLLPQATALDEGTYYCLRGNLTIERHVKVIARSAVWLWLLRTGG

In the case of IgG subtype control (antibody), the mean fluorescence intensity of cells in experiment [1] worked out at 50 MFI; in experiment [2] it was 50 MFI; in experiment [3], 62 MFI; in experiment [4], 50 MFI; in experiment [5], 78 MFI; in experiment [6], 50 MFI.

Consider “negative control antibody mIgG1 (anti-hel-mIgG1, antibody against hen egg lysozyme)”, for which the maximum mean fluorescence intensity in experiment [7] was found to be 382 MFI. In experiment [3], the maximum mean fluorescence intensity came to 165 MFI. The substance further gave a maximum mean fluorescence intensity in experiment [8] of 102 MFI. In experiment [9], this substance came in with a proportion of positive cells to B cells (%) at 1 nM of 3%, a proportion of positive cells to B cells (%) at 10 nM of 5% and a proportion of positive cells to B cells (%) at 100 nM of 11%. In [10], this substance gave an OD450 at 0.0001 nM of 0.07 OD450, an OD450 at 0.001 nM of 0.06 OD450, an OD450 at 0.01 nM of 0.06 OD450 and an OD450 at 0.10 nM of 0.06 OD450. In addition, in [10], the OD450 at 1.00 nM is 0.06 OD450, the OD450 at 10.00 nM is 0.08 OD450 and the OD450 at 100.00 nM was 0.11 OD450. In [11], this substance gave an OD450 at 0.0001 nM of 0.11 OD450, an OD450 at 0.001 nM of 0.12 OD450, an OD450 at 0.01 nM of 0.11 OD450 and an OD450 at 0.10 nM of 0.11 OD450. In addition, in experiment [11], the OD450 at 1.00 nM came to 0.11 OD450, the OD450 at 10.00 nM stood at 0.12 OD450 and the OD450 at 100.00 nM was 0.15 OD450.
